The record followed here is IntAct's records for PubMed 16280327.

The chains are these.
B1: B-cell lymphoma/leukemia 10 (Homo sapiens), O95999 (parent)
chain: MEPTAPSLTEEDLTEVKKDALENLRVYLCEKIIAERHFDHLRAKKILSREDTEEISCRTSSRKRAGKLLDYLQENPKGLDTLVESIRREKTQNFLIQKITDEVLKLRNIKLEHLKGLKCSSCEPFPDGATNNLSRSNSDESNFSEKLRASTVMYHPEGESSTTPFFSTNSSLNLPVLEVGRTENTIFSSTTLPRPGDPGAPPLPPDLQLEEEGTCANSSEMFLPLRSRTVSRQ
partner: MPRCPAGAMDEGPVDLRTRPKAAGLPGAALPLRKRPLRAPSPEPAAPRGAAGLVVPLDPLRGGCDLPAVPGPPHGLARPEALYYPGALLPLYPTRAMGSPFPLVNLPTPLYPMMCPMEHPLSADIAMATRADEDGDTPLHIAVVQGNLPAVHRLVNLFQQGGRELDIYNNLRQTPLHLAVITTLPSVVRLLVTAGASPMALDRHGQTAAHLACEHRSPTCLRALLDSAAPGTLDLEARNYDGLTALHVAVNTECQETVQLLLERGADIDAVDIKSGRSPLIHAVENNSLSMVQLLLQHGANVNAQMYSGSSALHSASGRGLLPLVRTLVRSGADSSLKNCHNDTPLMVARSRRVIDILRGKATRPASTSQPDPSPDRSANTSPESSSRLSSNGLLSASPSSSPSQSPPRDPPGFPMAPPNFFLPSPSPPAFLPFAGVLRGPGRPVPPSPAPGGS

This experiment covers variants of B1. To be noted: with bcl3_human BCL3, P20749.
On to S218D, for which the “effect of a mutation on the interaction” value is reported as “increasing interaction”.
Regarding S231D, the “effect of a mutation on the interaction” value is listed as “increasing interaction”.
